Experimental findings from paper doi:10.1101/2025.04.26.650775, “Evolution of a fuzzy ribonucleoprotein complex in viral assembly” (bioRxiv, 2025) are described below.

The target in series [1] is SARS-CoV-2 N-protein N:R203K/G204R, full-length (SARS-CoV-2) (UniProt P0DTC9). Briefly: mass photometry.
Series [2] deals with SARS-CoV-2 N-protein N:G215C* (oxidized), full-length (SARS-CoV-2) (UniProt P0DTC9). Briefly: mass photometry.
Series [3] concerns the target SARS-CoV-2 N-protein N:G215C (reduced), full-length (SARS-CoV-2) (UniProt P0DTC9). As to the kind of experiment: AUC.
For series [4] the target is unchanged. As to the kind of experiment: mass photometry.
The target in series [5] is SARS-CoV-2 N-protein Nο (Omicron set N:P13L/Δ31–33/R203K/G204R), full-length (SARS-CoV-2) (UniProt P0DTC9). As to the kind of experiment: mass photometry.
The series “dynamic light scattering” concerns the molecule itself. As to the kind of experiment: dynamic light scattering.

As for “SARS-CoV-2 N-protein N:R203K/G204R, full-length (from UniProt P0DTC9 1-419) (natural protein)”, the best-fit effective RNP life-time (with SL7 RNA) in series [1] was 54.6 s. As to “SARS-CoV-2 N-protein N:G215C* (oxidized), full-length (from UniProt P0DTC9 1-419) (natural protein)”, the best-fit effective RNP life-time (with SL7 RNA) in series [2] is 41.8 s. As a reminder, the Kd is the free concentration of one partner at which half of the binding sites on the other are occupied at equilibrium, for simple one-to-one binding. In turn, “SARS-CoV-2 N-protein N:G215C (reduced), full-length (from UniProt P0DTC9 1-419) (natural protein)” displayed a Kd in series [3] of 1000 nM. In series [4], this molecule yielded a best-fit effective RNP life-time (with SL7 RNA) of 231 s. As for “SARS-CoV-2 N-protein Nο (Omicron set N:P13L/Δ31–33/R203K/G204R), full-length (from UniProt P0DTC9 1-419) (natural protein)”, the best-fit effective RNP life-time (with SL7 RNA) in series [5] came out at 58.5 s.

Take MAGNCGDAALALLLLDRLNQLESKMSGKGQQQQGQTV [LRS peptide N_(210–246):G214C]: the binding result in the series “dynamic light scattering” is given as “binds”.
